Target: T1, protein A (UniProt P38507 37-477)
T1 construct: also called Protein A superantigen
Assay: phage ELISA on coated protein A; signal after 80 C 10 min then 4 C 10 min as % of the untreated sample (heat/cool assay)

B1: HEL4 VH (other)
VH: QVQLLESGGGLVQPGGSLRLSCAASGFRISDEDMGWVRQAPGKGLEWVSSIYGPSGSTYYADSVKGRFTISRDNSKNTLYLQMNSLRAEDTAVYYCASALEPLSEPLGFWGQGTLVTVSS
B1 was tested, and the “Retained binding to protein A” value was 88%.
